Assay results published in patent US7553630.

Columns and labels:
[1] = tested on: peptide 1 (19 kDa) from plasmin digestion of CHO-derived human MI
[2] = tested on: peptide 3 (13.5 kDa) from plasmin digestion of CHO-derived human MI
[3] = molecular target: type I collagenase in activated conditioned medium from TPA-treated rabbit synovial fibroblasts (rabbit) (UniProt P13943); experiment: cell-based or functional assay
[4] = molecular target: CHO cell-derived recombinant human metalloproteinase inhibitor (MI)
[5] = molecular target: E. coli-derived recombinant human metalloproteinase inhibitor (MI)

Sequence of peptide 3 (13.5 kDa) from plasmin digestion of CHO-derived human MI (chain, as listed by the source): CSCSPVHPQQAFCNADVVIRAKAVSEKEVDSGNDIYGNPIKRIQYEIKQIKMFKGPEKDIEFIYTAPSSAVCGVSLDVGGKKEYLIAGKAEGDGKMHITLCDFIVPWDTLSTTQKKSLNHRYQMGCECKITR

Molecule: gelatinase(s) in activated conditioned medium from TPA-treated rabbit synovial fibroblasts
- SDS-gelatin PAGE of a plasmin digest of MI [1]: These peptides retained their anticollagenase activity as shown by the SDS-gelatin PAGE
- SDS-gelatin PAGE of a plasmin digest of MI [2]: These peptides retained their anticollagenase activity as shown by the SDS-gelatin PAGE

Molecule: bovine peak II-derived metalloproteinase inhibitor (from UniProt P20414 24-207)
- Specific activity (units/mg), radiolabeled collagen film collagenase inhibition assay [3]: 1780 units/mg

B1: plasmin-treated rabbit fibroblast interstitial procollagenase (46-kDa intermediate) (protein)
chain: GNGLAVEKLKQMQEFFGLKVTGKPDAETLKMMKQPRCGVPDVAQFVLTPGNPRWEQTHLTYRIENYTPDLSRADVDNAIEKAFQLWSNVTPLTFTKVSKGQADIMISFVRGDHRDNSPFDGPEGQLAHAFQPGLGIGGDVHFDEDDRWTKDFRNYNLYRVAAHELGHSLGLSHSTDIGALMYPNYMFSGDVQLAQDDIDGIQAIYGPSQNPSQPVGPQTPKVCDSKLTFDAITTIRGEIMFFKDRFYMRANPYYSEVELNFISVFWPHLPNGLQAAYEVAHRDEILFFKGNKYWTVQGQNELPGYPKDIHSSFGFPRSVNHIDAAVSEEDTGKTYFFVANKYWRYDEYKRSMDAGYPKMIEYDFPGIGNKVDAVFKKDGFFYFFHGTRQYKFDPKTKRILTLQKANSWFNCRKN
- conversion of the 46-kDa intermediate to the 42-kDa active enzyme at 37° C. (SDS-PAGE); 27 pmol MI, 16 pmol procollagenase [4]: the conversion of the 46-kDa intermediate to the 42-kDa active enzyme which should have occurred at 37 °C was completely blocked by MI

B2: human plasmin (protein)
chain: KVYLSECKTGNGKNYRGTMSKTKNGITCQKWSSTSPHRPRFSPATHPSEGLEENYCRNPDNDPQGPWCYTTDPEKRYDYCDILECEEECMHCSGENYDGKISKTMSGLECQAWDSQSPHAHGYIPSKFPNKNLKKNYCRNPDRELRPWCFTTDPNKRWELCDIPRCTTPPPSSGPTYQCLKGTGENYRGNVAVTVSGHTCQHWSAQTPHTHNRTPENFPCKNLDENYCRNPDGKRAPWCHTTNSQVRWEYCKIPSCDSSPVSTEQLAPTAPPELTPVVQDCYHGDGQSYRGTSSTTTTGKKCQSWSSMTPHRHQKTPENYPNAGLTMNYCRNPDADKGPWCFTTDPSVRWEYCNLKKCSGTEASVVAPPPVVLLPDVETPSEEDCMFGNGKGYRGKRATTVTGTPCQDWAAQEPHRHSIFTPETNPRAGLEKNYCRNPDGDVGGPWCYTTNPRKLYDYCDVPQCAAPSFDCGKPQVEPKKCPGRVVGGCVAHPHSWPWQVSLRTRFGMHFCGGTLISPEWVLTAAHCLEKSPRPSSYKVILGAHQEVNLEPHVQEIEVSRLFLEPTRKDIALLKLSSPAVITDKVIPACLPSPNYVVADRTECFITGWGETQGTFGAGLLKEAQLPVIENKVCNRYEFLNGRVQSTELCAGHLAGGTDSCQGDSGGPLVCFEKDKYILQGVTSWGLGCARPNKPGVYVRVSRFVTWIEGVMRNN
- plasmin conversion of the 52-kDa proenzyme to the 46-kDa intermediate (SDS-PAGE) [4]: The addition of MI had no effect on the conversion of the 52-kDa proenzyme to the 46-kDa intermediate (lane 4)

B3: type I collagenase in activated conditioned medium from TPA-treated rabbit synovial fibroblasts (protein)
chain: FVLTPGNPRWEQTHLTYRIENYTPDLSRADVDNAIEKAFQLWSNVTPLTFTKVSKGQADIMISFVRGDHRDNSPFDGPEGQLAHAFQPGLGIGGDVHFDEDDRWTKDFRNYNLYRVAAHELGHSLGLSHSTDIGALMYPNYMFSGDVQLAQDDIDGIQAIYGPSQNPSQPVGPQTPKVCDSKLTFDAITTIRGEIMFFKDRFYMRANPYYSEVELNFISVFWPHLPNGLQAAYEVAHRDEILFFKGNKYWTVQGQNELPGYPKDIHSSFGFPRSVNHIDAAVSEEDTGKTYFFVANKYWRYDEYKRSMDAGYPKMIEYDFPGIGNKVDAVFKKDGFFYFFHGTRQYKFDPKTKRILTLQKANSWFNCRKN
- SDS-PAGE and autoradiography of specific collagen cleavage; MI at about 2 µg/ml [5]: also inhibited the specific collagen cleavage characteristic of mammalian collagenases

B4: rabbit fibroblast interstitial collagenase (42-kDa activated enzyme, APMA-activated) (protein)
chain: B3 chain
- SDS-PAGE and autoradiography of 14C type I collagen cleavage products; 4.6 pmol MI, 2.1 pmol collagenase [4]: The initial cleavage of the collagen as well as its further degradation were completely blocked by recombinant human MI.
